Here are results for 18 molecules from US20200392236A1 (JUNO THERAPEUTICS, published 2020).

Where a chain is given by its changes, count along the chain named. Names and notes keep the numbering of the source.

T1: human BCMA (B-cell maturation antigen) on cells (human, UniProt Q02223 1-184)
T1 construct: whole, on cells; also called hBCMA; hBCMA/HEK293 cell line
T1 sequence (looked up): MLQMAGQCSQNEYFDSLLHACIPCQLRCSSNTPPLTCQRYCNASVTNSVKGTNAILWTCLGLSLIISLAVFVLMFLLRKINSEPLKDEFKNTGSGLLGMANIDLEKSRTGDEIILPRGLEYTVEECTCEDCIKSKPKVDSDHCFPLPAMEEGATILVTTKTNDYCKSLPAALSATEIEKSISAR

T2: BCMA peptide 30SNTPPLTCQR39 (human)
T2 construct: Peptide of the CLIPS library; recognised in a linear form
T2 peptide: SNTPPLTCQR

B1: BCMA-8 anti-BCMA scFv (scFv)
scFv: QVQLVQSGGGLVQPGRSLRLSCTASGFTFGDYAMSWFRQAPGKGLEWVGFIRSKAYGGTTEYAASVKGRFTISRDDSKSIAYLQMNSLKTEDTAVYYCAAWSAPTDYWGQGTLVTVSSGGGGSGGGGSGGGGSDIVMTQSPDSLAVSLGERATINCKSSQSVLYSSNNKNYLAWYQQKPGQPPKLLIYWASTRESGVPDRFSGSGSGTDFTLTISSLQAEDVAVYYCQQYYSTPYTFGQGTKLEIK
notes: VH-(G4S)3-VL scFv
B2: BCMA-1 anti-BCMA scFv (scFv)
scFv: QVQLVQSGGGLVQPGRSLRLSCTASGFTFGDYAMSWFRQAPGKGLEWVGFIRSKAYGGTTEYAASVKGRFTISRDDSKSIAYLQMNSLKTEDTAVYYCAAWSAPTDYWGQGTLVTVSSGGGGSGGGGSGGGGSDIVMTQSPDSLSVSPGERATISCKSSQSVLSTSNNKNYLAWYQQKPGQPPRLLLYWASTREAGVPDRFSGSGSGTDFTLTISSLQAEDVAVYYCQQYFSSPYTFGHGTKLEIK
notes: VH-(G4S)3-VL scFv
B3: BCMA-3 anti-BCMA scFv (scFv)
scFv: B1 scFv with A145V, Y164H, S232T, Y235L, Q239G, L243V
notes: VH-(G4S)3-VL scFv
B4: BCMA-5 anti-BCMA scFv (scFv)
scFv: B1 scFv with Y235W, L243V, E244D
notes: VH-(G4S)3-VL scFv
B5: BCMA-31 anti-BCMA scFv (scFv)
scFv: B1 scFv with Q1E, I135V, N155S, Y164N, L172V, Q176K, L186V, Y188S, E244D
notes: VH-(G4S)3-VL scFv
B6: BCMA-7 anti-BCMA scFv (scFv)
scFv: QVQLVQSGGGLVQPGRSLRLSCTASGFTFGDYAMSWFRQAPGKGLEWVGFIRSKAYGGTTEYAASVKGRFTISRDDSKSIAYLQMNSLKTEDTAVYYCAAWSAPTDYWGQGTLVTVSSGGGGSGGGGSGGGGSVIQLTQSPSSLSASVGDRVTITCRASQDIGDYLAWFQQRPGKAPKSLIYVASTLQSGVPSRFSGSGSGTHFTLTINSLQPEDFATYYCQQYHSHPWTFGPGTKVDIK
notes: VH-(G4S)3-VL scFv
B7: BCMA-32 anti-BCMA scFv (scFv)
scFv: QVQLVESGGGLVKPGGSLRLSCAASGFTFSDYYMSWIRQAPGKGLEWVSYISSSGSTIYYADSVKGRFTISRDNAKNSLYLQMNSLRAEDTAVYYCAKVDGPPSFDIWGQGTMVTVSSGGGGSGGGGSGGGGSQTVVTQPPSVSVAPGQTARITCGGNNIGSKGVHWYRQRPGQAPEVVIYDDSDRPSGVPDRFSGSNSGNTATLTVRGVEAGDEADYYCQVWDSSSDHWVFGGGTKLTVL
notes: VH-(G4S)3-VL scFv
B8: BCMA-12 anti-BCMA scFv (scFv)
scFv: EVQLVESGGGLVKPGGSLRLSCAASGFTFSDYYMSWIRQAPGKGLEWVSYISSSGSTIYYADSVKGRFTISRDNAKNSLYLQMNSLRAEDTAVYYCAKVDGPPSFDIWGQGTMVTVSSGGGGSGGGGSGGGGSQSALTQPPSVSAAPGQKVTISCSGSRSNIGNNYVSWYQQLPGTAPKLLIYDNAKRPSGIPDRFSGSKSGTSATLDIAGLQTGDEADYYCQVWDSSSDHWVFGGGTKLTVL
notes: VH-(G4S)3-VL scFv
B9: BCMA-4 anti-BCMA scFv (scFv)
scFv: QVQLVQSGGGLVQPGRSLRLSCTASGFTFGDYAMSWFRQAPGKGLEWVGFIRSKAYGGTTEYAASVKGRFTISRDDSKSIAYLQMNSLKTEDTAVYYCAAWSAPTDYWGQGTLVTVSSGGGGSGGGGSGGGGSAIRMTQSPSSLSASLGDRVTITCRASQDIRNSLAWYQQRPGKAPKLLLSAASRLESGVPSRFSGTTSGAEYALSISSLQPEDVASYFCQQYYSLPLSFGGGTKVEIK
notes: VH-(G4S)3-VL scFv
B10: BCMA-10 anti-BCMA scFv (scFv)
scFv: EVQLVESGGGLVKPGGSLRLSCAASGFPFSDYYMSWIRQAPGKGLEWVSYISSSGSTIYYADSVKGRFTISRDNAKNSLYLQMNSLRAEDTAVYYCAKVDGPPSFDIWGQGTMVTVSSGGGGSGGGGSGGGGSSYVLTQPPSVSVAPGQTARITCGGNNIERKNVHWYQQKPGQAPVPVVYDDSDRASGIPERFSASNSGNTATLTISGAQATDEAEYYCQAWDSSSTLYVFGTGTKLTVL
notes: VH-(G4S)3-VL scFv
B11: BCMA-9 anti-BCMA scFv (scFv)
scFv: EVQLVQSGGGLVKPGGSLRLSCAASGFTFSDYYMSWIRQAPGKGLEWVSYISSSGSTIYYADSVKGRFTISRDNAKNSLYLQMNSLRAEDTAVYYCARVDGDYVDDYWGQGTLVTVSSGGGGSGGGGSGGGGSSYELTQPPSVSVAPGQTARVTCGANNIGSKSVHWYQQKPGQAPMLVVYDDDDRPSGIPERFSGSNSGNTATLTISGVEAGDEADYFCHVWDRSRDHYVFGTGTKLTVL
notes: VH-(G4S)3-VL scFv
B12: BCMA-2 anti-BCMA scFv (scFv)
scFv: EVQLVESGGGLVKPGGSLRLSCAASGFTFSDYYMSWIRQAPGKGLEWVSYISSSGSTIYYADSVKGRFTISRDNAKNSLYLQMNSLRAEDTAVYYCAKVDGPPSSDIWGQGTMVTVSSGGGGSGGGGSGGGGSEIVMTQSPATLSVSPGETATLSCRASQSIKTNLAWYQQKPGQAPRLLIYAASTRATGIPDRFSGSGSGTDFTLTITRLEPEDFAVYYCQQYGSSPTFGRGTKLEIK
notes: VH-(G4S)3-VL scFv
B13: BCMA-21 anti-BCMA scFv (scFv)
scFv: EVQLVESGGGLVKPGGSLKLSCAASGFTFSDYYMSWIRQAPGKGLEWVSYISSSGSTIYYADSVKGRFTISRDNAKNSLYLQMNSLRAEDTAVYYCAKVDGGYTEDYWGQGTLVTVSSGGGGSGGGGSGGGGSQSVLTQPPSASGTPGQRVTISCSGSGSNIGSNDVSWYQQIPGTAPKLLIYWNDQRPSGVPDRFSGSKSGISASLAISGLRSEDEADYYCAAWDDSLNGYVFGTGTKVTVL
notes: VH-(G4S)3-VL scFv
B14: BCMA-20 anti-BCMA scFv (scFv)
scFv: EVQLLESGGGLVQPGRSLRLSCAASGFTFDDYAMHWVRQAPGKGLEWVSGISWNSGSIGYADSVKGRFTISRDNAKNSLYLQMNSLRAEDTALYYCAKGGLGITPYYFDYWGQGTLVTVSSGGGGSGGGGSGGGGSQPVLTQPPSASGTPGQRVTISCSGGKTVNWFRQVPGTAPQLLIYSNDQRPSGVPDRFSGSKSGSSASLDISGLQSEDEAYYYCGSWDDSLNAWVFGGETKLTVL
notes: VH-(G4S)3-VL scFv
B15: BCMA-18 anti-BCMA scFv (scFv)
scFv: EVQLLESGGGLVQPGGSLRLSCAASGFTFSSYWMSWHRQAPGKGPEWVAHINQDGSEKYYVDSVKGRFTISRDNAESSLYLQMNSLRAEDTAVYYCARWLAVTNWGQGTLVTVSSGGGGSGGGGSGGGGSQSVLTQPPSASGTPGQRVTISCSGSGSNIGSNDVSWYQQIPGTAPKLLIYWNDQRPSGVPDRFSGSKSGTSASLAISGLRSEDEADYYCAAWDDSLNGWVFGGGTKLTVL
notes: VH-(G4S)3-VL scFv
B16: BCMA-22 anti-BCMA scFv (scFv)
scFv: EVQLVESGGGLVKPGGSLRLSCAASGFTFSDYYMSWIRQAPGKGLEWVSYISSSGSTIYYADSVKGRFTISRDNAKNSLYLQMNSLRAEDTAVYYCAKVDGDYTEDYWGQGTLVTVSSGGGGSGGGGSGGGGSQSALTQPASVSGSPGQSITISCTGSSSDVGKYNLVSWYQQPPGKAPKLIIYDVNKRPSGVSNRFSGSKSGNTATLTISGLQGDDEADYYCCSYGGSRSYVFGTGTKVTVL
notes: VH-(G4S)3-VL scFv
B17: BCMA-25 anti-BCMA scFv (scFv)
scFv: EVQLVQSGGGLVQPGRSLRLSCTASGFTFGDYAMSWFRQAPGKGLEWVGFIRSKAYGGTTEYAASVKGRFTISRDDSKSIAYLQMNSLKTEDTAVYYCAAWSAPTDYWGQGTLVTVSSGGGGSGGGGSGGGGSDIQMTQSPAFLSASVGDRVTVTCRASQGISNYLAWYQQKPGNAPRLLIYSASTLQSGVPSRFRGTGYGTEFSLTIDSLQPEDFATYYCQQSYTSRQTFGPGTRLDIK
notes: VH-(G4S)3-VL scFv
B18: BCMA-23 anti-BCMA scFv (scFv)
scFv: B16 scFv with C224S
notes: BCMA-22 with the first residue of CDR-L3 (cysteine) replaced by serine

The target of the first test is T1, human BCMA (B-cell maturation antigen) …. The test can be described thus: flow cytometry, hBCMA-overexpressing HEK293 compared with OPM2 and RPMI-8226 cells. Here is the method:
Binding of exemplary scFv clones to hBMCA-overexpressing HEK293 cells as compared to OPM2 and RPMI-8226 cell lines that express moderate levels of endogenous BCMA was assessed.
On the technique in general: In flow cytometry, cells or beads pass a laser one at a time.
In the case of B1, the binding result is on record as “binds”. Regarding B2, the binding result is recorded as “binds”. Still for that read-out and setting: under B3 stands “binds”. The same measure, in the same setting: in the case of B4 it was “binds”. For B5, the binding result was “binds”. On the same count and under the same terms, in the case of B6 it was “binds”; in that of B7, “binds”. As to B8, the binding result is given as “binds”. Same read-out and setting: in the case of B9 it was “binds”; in that of B10, “binds”; in that of B11, “binds”. For the molecule B12, the binding result is on record as “binds”.

For the next test the target is unchanged. Briefly: flow cytometry, hBCMA-expressing HEK293 against parental HEK293 cells. How it is done: Binding of exemplary scFv clones to hBMCA-expressing HEK293 cells was assessed and binding was compared to parental HEK293 cells.
Regarding B13, the “fold selective binding (hBCMA-expressing HEK293 over parental HEK293 cells)” value (“fold selective binding” below) is 3.4 fold. Take B14: the “fold selective binding” value was determined as 10.8 fold.

Take B15: the “fold selective binding” value was 2.2 fold.

As for B16, the “fold selective binding” value stood at 7.5 fold.

For the next test, the target named is T2, BCMA peptide 30SNTPPLTCQR39. The test can be described thus: CLIPS peptide array ELISA. Here is the method: Epitopes recognized, e.g., specifically bound to, by exemplary anti-BCMA scFv clones (BCMA-1, BCMA-5, BCMA-9, BCMA-23, BCMA-25, BCMA-26, BCMA-52 and BCMA-55 anti-BCMA scFvs), were assessed using full discontinuous epitope mapping by Chemical Linkage of Peptides onto Scaffolds (CLIPS; Pepscan Presto BV, Lelystad, The Netherlands; see, e.g., Timmerman et al., (2007) J. Mol. Recognit. 20: 283-329). Mapping was carried out using anti-BCMA scFv clones, such as those fused with mouse Fc (scFv-mFc).
Linear and conformational peptide libraries of amino acid residues 1-54 of human BCMA (set forth as amino acid residues 1-54 of SEQ ID NO:367) were generated based on a combinatorial matrix design. Linear peptides and structural mimetics including single loop, α-helix, β-turn, combinatorial and linear disulfide bridge mimics, and discontinuous epitope mimics were used, along with positive and negative control peptides, on an amino-functionalized solid support.
Affinities for binding to the peptides in the epitope library were determined using ELISA. The peptide arrays were incubated with a solution containing the scFv overnight at 4° C. Affinity information was used in iterative screens to define the sequence and conformation of epitopes. Heat maps of affinity information for two or more loops were generated.
(In general: In an ELISA, binding on a coated surface is turned into a signal by an enzyme label.)
B2: the binding result is “binds”. Turning to B4, the binding result was “binds”.

For B17, the binding result is recorded as “binds”.

As for B18, the binding result is “binds”.
